To fix the notation:
B1: GTF2I_HUMAN (protein, UniProt P78347 2-998, looked up)
General transcription factor …: AQVAMSTLPVEDEESSESRMVVTFLMSALESMCKELAKSKAEVACIAVYETDVFVVGTERGRAFVNTRKDFQKDFVKYCVEEEEKAAEMHKMKSTTQANRMSVDAVEIETLRKTVEDYFCFCYGKALGKSTVVPVPYEKMLRDQSAVVVQGLPEGVAFKHPENYDLATLKWILENKAGISFIIKRPFLEPKKHVGGRVMVTDADRSILSPGGSCGPIKVKTEPTEDSGISLEMAAVTVKEESEDPDYYQYNIQAGPSETDDVDEKQPLSKPLQGSHHSSEGNEGTEMEVPAEDSTQHVPSETSEDPEVEVTIEDDDYSPPSKRPKANELPQPPVPEPANAGKRKVREFNFEKWNARITDLRKQVEELFERKYAQAIKAKGPVTIPYPLFQSHVEDLYVEGLPEGIPFRRPSTYGIPRLERILLAKERIRFVIKKHELLNSTREDLQLDKPASGVKEEWYARITKLRKMVDQLFCKKFAEALGSTEAKAVPYQKFEAHPNDLYVEGLPENIPFRSPSWYGIPRLEKIIQVGNRIKFVIKRPELLTHSTTEVTQPRTNTPVKEDWNVRITKLRKQVEEIFNLKFAQALGLTEAVKVPYPVFESNPEFLYVEGLPEGIPFRSPTWFGIPRLERIVRGSNKIKFVVKKPELVISYLPPGMASKINTKALQSPKRPRSPGSNSKVPEIEVTVEGPNNNNPQTSAVRTPTQTNGSNVPFKPRGREFSFEAWNAKITDLKQKVENLFNEKCGEALGLKQAVKVPFALFESFPEDFYVEGLPEGVPFRRPSTFGIPRLEKILRNKAKIKFIIKKPEMFETAIKESTSSKSPPRKINSSPNVNTTASGVEDLNIIQVTIPDDDNERLSKVEKARQLREQVNDLFSRKFGEAIGMGFPVKVPYRKITINPGCVVVDGMPPGVSFKAPSYLEISSMRRILDSAEFIKFTVIRPFPGLVINNQLVDQSESEGPVIQESAEPSQLEVPATEEIKETDGSSQIKQEPDPTW
B2: SMC3_HUMAN (protein, UniProt Q9UQE7 1-1217, looked up)
Structural maintenance of …: MYIKQVIIQGFRSYRDQTIVDPFSSKHNVIVGRNGSGKSNFFYAIQFVLSDEFSHLRPEQRLALLHEGTGPRVISAFVEIIFDNSDNRLPIDKEEVSLRRVIGAKKDQYFLDKKMVTKNDVMNLLESAGFSRSNPYYIVKQGKINQMATAPDSQRLKLLREVAGTRVYDERKEESISLMKETEGKREKINELLKYIEERLHTLEEEKEELAQYQKWDKMRRALEYTIYNQELNETRAKLDELSAKRETSGEKSRQLRDAQQDARDKMEDIERQVRELKTKISAMKEEKEQLSAERQEQIKQRTKLELKAKDLQDELAGNSEQRKRLLKERQKLLEKIEEKQKELAETEPKFNSVKEKEERGIARLAQATQERTDLYAKQGRGSQFTSKEERDKWIKKELKSLDQAINDKKRQIAAIHKDLEDTEANKEKNLEQYNKLDQDLNEVKARVEELDRKYYEVKNKKDELQSERNYLWREENAEQQALAAKREDLEKKQQLLRAATGKAILNGIDSINKVLDHFRRKGINQHVQNGYHGIVMNNFECEPAFYTCVEVTAGNRLFYHIVDSDEVSTKILMEFNKMNLPGEVTFLPLNKLDVRDTAYPETNDAIPMISKLRYNPRFDKAFKHVFGKTLICRSMEVSTQLARAFTMDCITLEGDQVSHRGALTGGYYDTRKSRLELQKDVRKAEEELGELEAKLNENLRRNIERINNEIDQLMNQMQQIETQQRKFKASRDSILSEMKMLKEKRQQSEKTFMPKQRSLQSLEASLHAMESTRESLKAELGTDLLSQLSLEDQKRVDALNDEIRQLQQENRQLLNERIKLEGIITRVETYLNENLRKRLDQVEQELNELRETEGGTVLTATTSELEAINKRVKDTMARSEDLDNSIDKTEAGIKELQKSMERWKNMEKEHMDAINHDTKELEKMTNRQGMLLKKKEECMKKIRELGSLPQEAFEKYQTLSLKQLFRKLEQCNTELKKYSHVNKKALDQFVNFSEQKEKLIKRQEELDRGYKSIMELMNVLELRKYEAIQLTFKQVSKNFSEVFQKLVPGGKATLVMKKGDVEGSQSQDEGEGSGESERGSGSQSSVPSVDQFTGVGIRVSFTGKQGEMREMQQLSGGQKSLVALALIFAIQKCDPAPFYLFDEIDQALDAQHRKAVSDMIMELAVHAQFITTTFRPELLESADKFYGVKFRNKVSHIDVITAEMAKDFVEDDTTHG
B3: NU133_HUMAN (protein, UniProt Q8WUM0 1-1156, looked up)
Nuclear pore complex protein …: MFPAAPSPRTPGTGSRRGPLAGLGPGSTPRTASRKGLPLGSAVSSPVLFSPVGRRSSLSSRGTPTRMFPHHSITESVNYDVKTFGSSLPVKVMEALTLAEVDDQLTINIDEGGWACLVCKEKLIIWKIALSPITKLSVCKELQLPPSDFHWSADLVALSYSSPSGEAHSTQAVAVMVATREGSIRYWPSLAGEDTYTEAFVDSGGDKTYSFLTAVQGGSFILSSSGSQLIRLIPESSGKIHQHILPQGQGMLSGIGRKVSSLFGILSPSSDLTLSSVLWDRERSSFYSLTSSNISKWELDDSSEKHAYSWDINRALKENITDAIWGSESNYEAIKEGVNIRYLDLKQNCDGLVILAAAWHSADNPCLIYYSLITIEDNGCQMSDAVTVEVTQYNPPFQSEDLILCQLTVPNFSNQTAYLYNESAVYVCSTGTGKFSLPQEKIVFNAQGDSVLGAGACGGVPIIFSRNSGLVSITSRENVSILAEDLEGSLASSVAGPNSESMIFETTTKNETIAQEDKIKLLKAAFLQYCRKDLGHAQMVVDELFSSHSDLDSDSELDRAVTQISVDLMDDYPASDPRWAESVPEEAPGFSNTSLIILHQLEDKMKAHSFLMDFIHQVGLFGRLGSFPVRGTPMATRLLLCEHAEKLSAAIVLKNHHSRLSDLVNTAILIALNKREYEIPSNLTPADVFFREVSQVDTICECLLEHEEQVLRDAPMDSIEWAEVVINVNNILKDMLQAASHYRQNRNSLYRREESLEKEPEYVPWTATSGPGGIRTVIIRQHEIVLKVAYPQADSNLRNIVTEQLVALIDCFLDGYVSQLKSVDKSSNRERYDNLEMEYLQKRSDLLSPLLSLGQYLWAASLAEKYCDFDILVQMCEQTDNQSRLQRYMTQFADQNFSDFLFRWYLEKGKRGKLLSQPISQHGQLANFLQAHEHLSWLHEINSQELEKAHATLLGLANMETRYFAKKKTLLGLSKLAALASDFSEDMLQEKIEEMAEQERFLLHQETLPEQLLAEKQLNLSAMPVLTAPQLIGLYICEENRRANEYDFKKALDLLEYIDEEEDININDLKLEILCKALQRDNWSSSDGKDDPIEVSKDSIFVKILQKLLKDGIQLSEYLPEVKDLLQADQLGSLKSNPYFEFVLKANYEYYVQGQI
B4: SF3B2_HUMAN (protein, UniProt Q13435 1-895, looked up)
Splicing factor 3B subunit 2: MATEHPEPPKAELQLPPPPPPGHYGAWAAQELQAKLAEIGAPIQGNREELVERLQSYTRQTGIVLNRPVLRGEDGDKAAPPPMSAQLPGIPMPPPPLGLPPLQPPPPPPPPPPGLGLGFPMAHPPNLGPPPPLRVGEPVALSEEERLKLAQQQAALLMQQEERAKQQGDHSLKEHELLEQQKRAAVLLEQERQQEIAKMGTPVPRPPQDMGQIGVRTPLGPRVAAPVGPVGPTPTVLPMGAPVPRPRGPPPPPGDENREMDDPSVGPKIPQALEKILQLKESRQEEMNSQQEEEEMETDARSSLGQSASETEEDTVSVSKKEKNRKRRNRKKKKKPQRVRGVSSESSGDREKDSTRSRGSDSPAADVEIEYVTEEPEIYEPNFIFFKRIFEAFKLTDDVKKEKEKEPEKLDKLENSAAPKKKGFEEEHKDSDDDSSDDEQEKKPEAPKLSKKKLRRMNRFTVAELKQLVARPDVVEMHDVTAQDPKLLVHLKATRNSVPVPRHWCFKRKYLQGKRGIEKPPFELPDFIKRTGIQEMREALQEKEEQKTMKSKMREKVRPKMGKIDIDYQKLHDAFFKWQTKPKLTIHGDLYYEGKEFETRLKEKKPGDLSDELRISLGMPVGPNAHKVPPPWLIAMQRYGPPPSYPNLKIPGLNSPIPESCSFGYHAGGWGKPPVDETGKPLYGDVFGTNAAEFQTKTEEEEIDRTPWGELEPSDEESSEEEEEEESDEDKPDETGFITPADSGLITPGGFSSVPAGMETPELIELRKKKIEEAMDGSETPQLFTVLPEKRTATVGGAMMGSTHIYDMSTVMSRKGPAPELQGVEVALAPEELELDPMAMTQKYEEHVREQQAQVEKEDFSDMVAEHAAKQKQKKRKAQPQDSRGGSKKYKEFKF
B5: DHX30_HUMAN (protein, UniProt Q7L2E3 1-1194, looked up)
ATP-dependent RNA helicase …: MFSLDSFRKDRAQHRQRQCKLPPPRLPPMCVNPTPGGTISRASRDLLKEFPQPKNLLNSVIGRALGISHAKDKLVYVHTNGPKKKKVTLHIKWPKSVEVEGYGSKKIDAERQAAAAACQLFKGWGLLGPRNELFDAAKYRVLADRFGSPADSWWRPEPTMPPTSWRQLNPESIRPGGPGGLSRSLGREEEEDEEEELEEGTIDVTDFLSMTQQDSHAPLRDSRGSSFEMTDDDSAIRALTQFPLPKNLLAKVIQIATSSSTAKNLMQFHTVGTKTKLSTLTLLWPCPMTFVAKGRRKAEAENKAAALACKKLKSLGLVDRNNEPLTHAMYNLASLRELGETQRRPCTIQVPEPILRKIETFLNHYPVESSWIAPELRLQSDDILPLGKDSGPLSDPITGKPYVPLLEAEEVRLSQSLLELWRRRGPVWQEAPQLPVDPHRDTILNAIEQHPVVVISGDTGCGKTTRIPQLLLERYVTEGRGARCNVIITQPRRISAVSVAQRVSHELGPSLRRNVGFQVRLESKPPSRGGALLFCTVGILLRKLQSNPSLEGVSHVIVDEVHERDVNTDFLLILLKGLQRLNPALRLVLMSATGDNERFSRYFGGCPVIKVPGFMYPVKEHYLEDILAKLGKHQYLHRHRHHESEDECALDLDLVTDLVLHIDARGEPGGILCFLPGWQEIKGVQQRLQEALGMHESKYLILPVHSNIPMMDQKAIFQQPPVGVRKIVLATNIAETSITINDIVHVVDSGLHKEERYDLKTKVSCLETVWVSRANVIQRRGRAGRCQSGFAYHLFPRSRLEKMVPFQVPEILRTPLENLVLQAKIHMPEKTAVEFLSKAVDSPNIKAVDEAVILLQEIGVLDQREYLTTLGQRLAHISTDPRLAKAIVLAAIFRCLHPLLVVVSCLTRDPFSSSLQNRAEVDKVKALLSHDSGSDHLAFVRAVAGWEEVLRWQDRSSRENYLEENLLYAPSLRFIHGLIKQFSENIYEAFLVGKPSDCTLASAQCNEYSEEEELVKGVLMAGLYPNLIQVRQGKVTRQGKFKPNSVTYRTKSGNILLHKSTINREATRLRSRWLTYFMAVKSNGSVFVRDSSQVHPLAVLLLTDGDVHIRDDGRRATISLSDSDLLRLEGDSRTVRLLKELRRALGRMVERSLRSELAALPPSVQEEHGQLLALLAELLRGPCGSFDVRKTADD

The test system of the assay is KDM4A-I71AzF. The assay is described as follows: CASI: photo-crosslinking with HEK293T cell extracts, StrepTactin enrichment and LC-MS/MS proteomics.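 Further: lysates from HEK293T cells pretreated with a KDM4 inhibitor to raise proteome methylation, affinity-purified after ±UV, gel-resolved, trypsin-digested, with exclusive unique peptides per protein averaged per condition.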 Type of assay: binding, human. The settings on record: sheet "Final results but with 0.01".
Take B1: the “Fold change (+UV/-UV)” value was determined as 3. B2: the “Fold change (+UV/-UV)” value was 0.375. Consider B3, for which the “Fold change (+UV/-UV)” value is on record as 0.8. For B4, the “Fold change (+UV/-UV)” value amounted to 0.7273. B5: the “Fold change (+UV/-UV)” value amounted to 0.75.

For the origin of these results see paper PMC10540216, “Activity Guided Azide-methyllysine Photo-trapping for Substrate Profiling of Lysine Demethylases” (Journal of the American Chemical Society, 2023).
